Sequences and labels used below:
B1: RNF115 peptide 69-84 (E3 ubiquitin-protein ligase RNF115), 16-mer library wild type / MDM2 SWIB (MDM2 SWIB/MDM2 domain, residues 17-125) (parent complex)
chain 1: THFAELWGHLDHTMFF
chain 2: SQIPASEQETLVRPKPLLLKLLKSVGAQKDTYTMKEVLFYLGQYIMTKRLYDEKQQHIVYCSNDLLGDLFGVPSFSVKEHRKIYTMIYRNLVVVNQQESSDSGTSVSEN
B2: MXI1 peptide 6-21 (Max-interacting protein 1), 16-mer library wild type / SIN3A PAH2 (SIN3A PAH domain, residues 295-383) (parent complex)
chain 1: MINVQRLLEAAEFLER
chain 2: SLQNNQPVEFNHAINYVNKIKNRFQGQPDIYKAFLEILHTYQKEQRNAKEAGGNYTPALTEQEVYAQVARLFKNQEDLLSEFGQFLPDA

The variants in one assay derive from B1. Description: proteomic peptide phage display deep mutational scan (ProP-PD DMS): M13 P8 16-mer library selected against immobilised GST-tagged bait for four days (rounds), NGS of the eluted pools per day and pseudo-replica; bait immobilised on MaxiSorp plates (10 µg), library pre-cleared on GST, 2 h binding at 4 °C, five washes; one round per day, days 1-4; value from days 2 and 3.
As for chain 1 E5D, the screen value is 0.00488 average fractional NGS count over selection days 2 and 3 (reads of this peptide / all reads for the bait, averaged over ….
The same measure, in the same setting: in the case of chain 1 E5N it was 0.000269 average fractional NGS count over selection days 2 and 3 (reads of this peptide / all reads for the bait, averaged over ….
Still for that read-out and setting: in the case of chain 1 E5V it was 0.000931 average fractional NGS count over selection days 2 and 3 (reads of this peptide / all reads for the bait, averaged over ….
Consider chain 1 E5W, for which the screen value is 0.00018 average fractional NGS count over selection days 2 and 3 (reads of this peptide / all reads for the bait, averaged over ….
The same measure, in the same setting: the same measure for chain 1 E5Y: 0.000681 average fractional NGS count over selection days 2 and 3 (reads of this peptide / all reads for the bait, averaged over …; for chain 1 E5A: 0.000481 average fractional NGS count over selection days 2 and 3 (reads of this peptide / all reads for the bait, averaged over ….
Still for that read-out and setting: the same measure for chain 1 E5Q: 0.00197 average fractional NGS count over selection days 2 and 3 (reads of this peptide / all reads for the bait, averaged over ….
Still for that read-out and setting: in the case of chain 1 H9T it was 0.00161 average fractional NGS count over selection days 2 and 3 (reads of this peptide / all reads for the bait, averaged over …; in that of chain 1 H9R, 0.00234 average fractional NGS count over selection days 2 and 3 (reads of this peptide / all reads for the bait, averaged over …; in that of chain 1 H9W, 0.000883 average fractional NGS count over selection days 2 and 3 (reads of this peptide / all reads for the bait, averaged over ….
As to chain 1 H9D, the screen value was 0.0019 average fractional NGS count over selection days 2 and 3 (reads of this peptide / all reads for the bait, averaged over ….
Take chain 1 H9Y: the screen value was 0.000619 average fractional NGS count over selection days 2 and 3 (reads of this peptide / all reads for the bait, averaged over ….
On to chain 1 H9I, for which the screen value was 0.00113 average fractional NGS count over selection days 2 and 3 (reads of this peptide / all reads for the bait, averaged over ….
chain 1 H9Q: the screen value is 0.00185 average fractional NGS count over selection days 2 and 3 (reads of this peptide / all reads for the bait, averaged over ….
Regarding chain 1 H9M, the screen value was 0.00238 average fractional NGS count over selection days 2 and 3 (reads of this peptide / all reads for the bait, averaged over ….
As to chain 1 H9K, the screen value was 0.0135 average fractional NGS count over selection days 2 and 3 (reads of this peptide / all reads for the bait, averaged over ….
For chain 1 H9S, the screen value was 0.00629 average fractional NGS count over selection days 2 and 3 (reads of this peptide / all reads for the bait, averaged over ….
On the same count and under the same terms, the same measure for chain 1 H9V: 0.00147 average fractional NGS count over selection days 2 and 3 (reads of this peptide / all reads for the bait, averaged over …; for chain 1 H9G: 0.00212 average fractional NGS count over selection days 2 and 3 (reads of this peptide / all reads for the bait, averaged over ….
The same measure, in the same setting: the same measure for chain 1 H9N: 0.00523 average fractional NGS count over selection days 2 and 3 (reads of this peptide / all reads for the bait, averaged over …; for chain 1 H9E: 0.00208 average fractional NGS count over selection days 2 and 3 (reads of this peptide / all reads for the bait, averaged over ….
Consider chain 1 G8H, for which the screen value is 0.00286 average fractional NGS count over selection days 2 and 3 (reads of this peptide / all reads for the bait, averaged over ….
Still for that read-out and setting: the same measure for chain 1 G8E: 0.00632 average fractional NGS count over selection days 2 and 3 (reads of this peptide / all reads for the bait, averaged over …; for chain 1 G8M: 0.00018 average fractional NGS count over selection days 2 and 3 (reads of this peptide / all reads for the bait, averaged over …; for chain 1 G8W: 0.000927 average fractional NGS count over selection days 2 and 3 (reads of this peptide / all reads for the bait, averaged over ….
Still for that read-out and setting: the same measure for chain 1 G8N: 0.00558 average fractional NGS count over selection days 2 and 3 (reads of this peptide / all reads for the bait, averaged over …; for chain 1 G8A: 0.000308 average fractional NGS count over selection days 2 and 3 (reads of this peptide / all reads for the bait, averaged over …; for chain 1 G8Y: 0.00157 average fractional NGS count over selection days 2 and 3 (reads of this peptide / all reads for the bait, averaged over ….
Still for that read-out and setting: the same measure for chain 1 G8R: 0.000199 average fractional NGS count over selection days 2 and 3 (reads of this peptide / all reads for the bait, averaged over ….
Turning to chain 1 G8Q, the screen value is 0.0015 average fractional NGS count over selection days 2 and 3 (reads of this peptide / all reads for the bait, averaged over ….
For chain 1 G8T, the screen value was 0.00199 average fractional NGS count over selection days 2 and 3 (reads of this peptide / all reads for the bait, averaged over ….
As for chain 1 G8K, the screen value is 0.000179 average fractional NGS count over selection days 2 and 3 (reads of this peptide / all reads for the bait, averaged over ….
With chain 1 G8S, the screen value is 0.0101 average fractional NGS count over selection days 2 and 3 (reads of this peptide / all reads for the bait, averaged over ….
Turning to chain 1 L10I, the screen value is 0.00104 average fractional NGS count over selection days 2 and 3 (reads of this peptide / all reads for the bait, averaged over ….
chain 1 L10F: the screen value was 0.00105 average fractional NGS count over selection days 2 and 3 (reads of this peptide / all reads for the bait, averaged over ….
Consider chain 1 L10V, for which the screen value is 0.000492 average fractional NGS count over selection days 2 and 3 (reads of this peptide / all reads for the bait, averaged over ….
The same measure, in the same setting: in the case of chain 1 M14P it was 0.00244 average fractional NGS count over selection days 2 and 3 (reads of this peptide / all reads for the bait, averaged over …; in that of chain 1 M14G, 0.000223 average fractional NGS count over selection days 2 and 3 (reads of this peptide / all reads for the bait, averaged over …; in that of chain 1 M14S, 0.00183 average fractional NGS count over selection days 2 and 3 (reads of this peptide / all reads for the bait, averaged over ….
On the same count and under the same terms, in the case of chain 1 M14L it was 0.000799 average fractional NGS count over selection days 2 and 3 (reads of this peptide / all reads for the bait, averaged over …; in that of chain 1 M14D, 0.00118 average fractional NGS count over selection days 2 and 3 (reads of this peptide / all reads for the bait, averaged over ….
Consider chain 1 M14T, for which the screen value is 0.00238 average fractional NGS count over selection days 2 and 3 (reads of this peptide / all reads for the bait, averaged over ….
On to chain 1 M14H, for which the screen value was 0.0015 average fractional NGS count over selection days 2 and 3 (reads of this peptide / all reads for the bait, averaged over ….
With chain 1 M14Q, the screen value was 0.000925 average fractional NGS count over selection days 2 and 3 (reads of this peptide / all reads for the bait, averaged over ….
Same read-out and setting: in the case of chain 1 M14V it was 0.00137 average fractional NGS count over selection days 2 and 3 (reads of this peptide / all reads for the bait, averaged over ….
On the same count and under the same terms, the same measure for chain 1 M14W: 0.00207 average fractional NGS count over selection days 2 and 3 (reads of this peptide / all reads for the bait, averaged over ….
Regarding chain 1 M14F, the screen value is 0.000469 average fractional NGS count over selection days 2 and 3 (reads of this peptide / all reads for the bait, averaged over ….
Still for that read-out and setting: the same measure for chain 1 M14N: 0.00152 average fractional NGS count over selection days 2 and 3 (reads of this peptide / all reads for the bait, averaged over …; for chain 1 M14Y: 0.00313 average fractional NGS count over selection days 2 and 3 (reads of this peptide / all reads for the bait, averaged over …; for chain 1 M14A: 0.00114 average fractional NGS count over selection days 2 and 3 (reads of this peptide / all reads for the bait, averaged over ….
Still for that read-out and setting: in the case of chain 1 D11P it was 0.000507 average fractional NGS count over selection days 2 and 3 (reads of this peptide / all reads for the bait, averaged over …; in that of chain 1 D11A, 0.0112 average fractional NGS count over selection days 2 and 3 (reads of this peptide / all reads for the bait, averaged over ….
Regarding chain 1 D11I, the screen value was 0.000389 average fractional NGS count over selection days 2 and 3 (reads of this peptide / all reads for the bait, averaged over ….
The same measure, in the same setting: the same measure for chain 1 D11T: 0.000142 average fractional NGS count over selection days 2 and 3 (reads of this peptide / all reads for the bait, averaged over ….
Still for that read-out and setting: the same measure for chain 1 D11F: 8.75e-05 average fractional NGS count over selection days 2 and 3 (reads of this peptide / all reads for the bait, averaged over …; for chain 1 D11K: 0.000112 average fractional NGS count over selection days 2 and 3 (reads of this peptide / all reads for the bait, averaged over ….
chain 1 D11Y: the screen value was 0.000538 average fractional NGS count over selection days 2 and 3 (reads of this peptide / all reads for the bait, averaged over ….
On the same count and under the same terms, in the case of chain 1 D11G it was 0.000731 average fractional NGS count over selection days 2 and 3 (reads of this peptide / all reads for the bait, averaged over ….
On the same count and under the same terms, the same measure for chain 1 D11M: 0.000791 average fractional NGS count over selection days 2 and 3 (reads of this peptide / all reads for the bait, averaged over ….
Same read-out and setting: in the case of chain 1 D11L it was 0.000447 average fractional NGS count over selection days 2 and 3 (reads of this peptide / all reads for the bait, averaged over …; in that of chain 1 D11R, 0.000139 average fractional NGS count over selection days 2 and 3 (reads of this peptide / all reads for the bait, averaged over …; in that of chain 1 D11Q, 0.000111 average fractional NGS count over selection days 2 and 3 (reads of this peptide / all reads for the bait, averaged over ….
As to chain 1 D11E, the screen value is 0.000686 average fractional NGS count over selection days 2 and 3 (reads of this peptide / all reads for the bait, averaged over ….
Still for that read-out and setting: in the case of chain 1 D11S it was 0.00405 average fractional NGS count over selection days 2 and 3 (reads of this peptide / all reads for the bait, averaged over ….
Regarding chain 1 D11N, the screen value is 0.00248 average fractional NGS count over selection days 2 and 3 (reads of this peptide / all reads for the bait, averaged over ….
Still for that read-out and setting: the same measure for chain 1 L6H: 0.00174 average fractional NGS count over selection days 2 and 3 (reads of this peptide / all reads for the bait, averaged over …; for chain 1 L6A: 0.00179 average fractional NGS count over selection days 2 and 3 (reads of this peptide / all reads for the bait, averaged over …; for chain 1 L6Q: 0.000157 average fractional NGS count over selection days 2 and 3 (reads of this peptide / all reads for the bait, averaged over ….
On the same count and under the same terms, the same measure for chain 1 L6F: 0.00096 average fractional NGS count over selection days 2 and 3 (reads of this peptide / all reads for the bait, averaged over …; for chain 1 L6Y: 0.00417 average fractional NGS count over selection days 2 and 3 (reads of this peptide / all reads for the bait, averaged over …; for chain 1 L6I: 0.000313 average fractional NGS count over selection days 2 and 3 (reads of this peptide / all reads for the bait, averaged over ….
As for chain 1 L6W, the screen value is 0.000846 average fractional NGS count over selection days 2 and 3 (reads of this peptide / all reads for the bait, averaged over ….

The variants in a further assay derive from B2. The description is as above.
As for chain 1 L14G, the screen value is 0.000436 average fractional NGS count over selection days 2 and 3 (reads of this peptide / all reads for the bait, averaged over ….
Same read-out and setting: the same measure for chain 1 M1G: 0.000229 average fractional NGS count over selection days 2 and 3 (reads of this peptide / all reads for the bait, averaged over …; for chain 1 R6H: 0.00034 average fractional NGS count over selection days 2 and 3 (reads of this peptide / all reads for the bait, averaged over ….

The values are drawn from publication PMC12102759 (2025).
